# Legend:
# dcc_rat Dcc [1] = target: dcc_rat Dcc (UniProt Q63155)
# dcc_rat Dcc [2] = target: dcc_rat Dcc (UniProt Q63155); remark: listed apart in the source
# UniProt Q63155, sequence (Q63155 whole entry): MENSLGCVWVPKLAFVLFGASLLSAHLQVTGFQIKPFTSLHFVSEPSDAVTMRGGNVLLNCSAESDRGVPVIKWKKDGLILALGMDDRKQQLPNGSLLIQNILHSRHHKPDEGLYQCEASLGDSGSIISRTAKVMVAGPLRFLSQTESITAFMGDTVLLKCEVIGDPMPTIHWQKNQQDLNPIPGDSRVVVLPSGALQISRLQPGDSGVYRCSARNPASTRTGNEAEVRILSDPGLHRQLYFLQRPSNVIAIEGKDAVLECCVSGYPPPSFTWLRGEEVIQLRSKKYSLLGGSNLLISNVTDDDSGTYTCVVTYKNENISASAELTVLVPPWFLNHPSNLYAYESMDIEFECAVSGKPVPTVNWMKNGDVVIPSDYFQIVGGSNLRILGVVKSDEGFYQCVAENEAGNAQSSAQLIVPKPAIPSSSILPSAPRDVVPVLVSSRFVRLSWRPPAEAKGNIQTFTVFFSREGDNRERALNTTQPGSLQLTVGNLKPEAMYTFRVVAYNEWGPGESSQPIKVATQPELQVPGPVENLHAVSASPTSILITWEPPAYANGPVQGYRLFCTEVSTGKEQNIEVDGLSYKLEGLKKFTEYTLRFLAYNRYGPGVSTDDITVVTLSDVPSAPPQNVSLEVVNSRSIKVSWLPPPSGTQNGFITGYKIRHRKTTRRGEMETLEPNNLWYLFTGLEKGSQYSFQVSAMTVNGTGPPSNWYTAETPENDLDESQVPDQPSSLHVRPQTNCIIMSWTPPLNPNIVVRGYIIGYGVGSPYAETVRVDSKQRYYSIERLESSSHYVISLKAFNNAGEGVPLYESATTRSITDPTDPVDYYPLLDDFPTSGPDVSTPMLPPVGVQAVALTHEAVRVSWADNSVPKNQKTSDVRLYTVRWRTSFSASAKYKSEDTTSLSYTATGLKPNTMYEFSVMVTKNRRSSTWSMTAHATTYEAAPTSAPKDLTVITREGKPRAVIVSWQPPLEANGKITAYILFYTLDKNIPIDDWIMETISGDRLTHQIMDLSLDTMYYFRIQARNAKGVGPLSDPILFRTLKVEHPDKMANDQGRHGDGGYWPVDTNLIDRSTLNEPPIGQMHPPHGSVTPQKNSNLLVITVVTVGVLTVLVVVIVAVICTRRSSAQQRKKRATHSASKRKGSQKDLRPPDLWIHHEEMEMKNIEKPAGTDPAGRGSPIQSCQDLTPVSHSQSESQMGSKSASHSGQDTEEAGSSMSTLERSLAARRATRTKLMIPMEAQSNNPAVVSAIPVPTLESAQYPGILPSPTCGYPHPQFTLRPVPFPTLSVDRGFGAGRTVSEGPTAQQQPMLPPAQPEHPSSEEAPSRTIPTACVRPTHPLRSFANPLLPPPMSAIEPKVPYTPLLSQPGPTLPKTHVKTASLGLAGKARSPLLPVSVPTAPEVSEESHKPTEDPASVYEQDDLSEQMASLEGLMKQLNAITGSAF
effect of a mutation on the interaction (dcc_rat Dcc [1]),effect of a mutation on the interaction (dcc_rat Dcc [2]),Substance
disrupting interaction strength,,"Unconventional myosin-X (Homo sapiens), Q9HD67 I2037E"
,disrupting interaction strength,"Unconventional myosin-X (Homo sapiens), Q9HD67 S1718A;H1719A"
,disrupting interaction strength,"Unconventional myosin-X (Homo sapiens), Q9HD67 S1718A;H1719A;D1763A;E1769A;K1770A"
